Measurements from PMC5929103.

Legend:
Assay in all cases: enzyme inhibition kinetics
[1] = molecular target: human cationic trypsin, active (human)
[2] = molecular target: human mesotrypsin, active (human) (UniProt P35030)
[3] = molecular target: human anionic trypsin, active (human) (UniProt P07478)
Chain of UniProt P07478 (P07478 24-247): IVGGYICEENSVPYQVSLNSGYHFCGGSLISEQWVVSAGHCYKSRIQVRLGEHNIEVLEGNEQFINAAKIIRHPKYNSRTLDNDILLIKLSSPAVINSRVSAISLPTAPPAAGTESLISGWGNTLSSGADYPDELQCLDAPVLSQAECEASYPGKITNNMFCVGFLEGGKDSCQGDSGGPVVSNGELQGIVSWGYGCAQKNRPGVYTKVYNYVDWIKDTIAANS

Chain of UniProt P35030 (P35030 81-304): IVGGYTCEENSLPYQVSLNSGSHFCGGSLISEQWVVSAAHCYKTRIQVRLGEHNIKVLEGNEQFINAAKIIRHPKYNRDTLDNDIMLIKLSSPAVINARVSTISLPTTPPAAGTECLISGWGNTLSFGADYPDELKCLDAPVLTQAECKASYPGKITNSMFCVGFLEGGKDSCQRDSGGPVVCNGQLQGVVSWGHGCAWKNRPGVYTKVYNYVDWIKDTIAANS

Substance	Ki [1] [nM]	Ki [2] [nM]	Ki [3] [nM]
APPI_(P13W/M17G/I18F/F34V), soluble form (designed binder)	0.019	0.069	0.0038
wild-type amyloid β-protein precursor Kunitz protease inhibitor domain (APPI) (from UniProt P05067 289-344) (domain or fragment)	0.0041		
APPI_(M17G/I18F/F34V), soluble form (designed binder)	0.023		
